Measurements as given in US20200262877A1, “ION CHANNEL-BINDING PEPTIDES AND METHODS OF USE THEREOF” (priority 2017, published 2020).

Key:
[1] = molecular target: T1, Cav2.2 (Homo sapiens, UniProt Q00975); experiment: cell-based; settings: 100% = no change, <100% = inhibition
T1 construct: host or cells: HEK293 or CHO
Outline: (§1)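 Peptides were tested in duplicate at final 20 μM and 200 nM, with concentration set by amino acid analysis, in HEPES-buffered saline. They were applied for at least 5 min to HEK293 or CHO cells transfected with each channel. Currents were expressed as % inhibition, 1-(Ipeptide/Icontrol)×100, or % activation, Ipeptide/Icontrol×100, against a channel-matched reference compound.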

[2] = molecular target: T2, Cav2.1 (Homo sapiens, UniProt O00555); experiment: cell-based; settings: 100% = no change, <100% = inhibition
T2 construct: host or cells: HEK293 or CHO
Outline: as §1

[3] = molecular target: T3, Kv2.1 (Homo sapiens, UniProt Q14721); experiment: cell-based; settings: 100% = no change, <100% = inhibition
T3 construct: host or cells: HEK293 or CHO
Outline: as §1

[4] = molecular target: T4, 5HT3a (Homo sapiens, UniProt P46098); experiment: Ion channel panel (IonWorks Barracuda): 5HT3a; type: cell-based
T4 construct: host or cells: HEK293 or CHO
T4 sequence (P46098 whole entry, looked up): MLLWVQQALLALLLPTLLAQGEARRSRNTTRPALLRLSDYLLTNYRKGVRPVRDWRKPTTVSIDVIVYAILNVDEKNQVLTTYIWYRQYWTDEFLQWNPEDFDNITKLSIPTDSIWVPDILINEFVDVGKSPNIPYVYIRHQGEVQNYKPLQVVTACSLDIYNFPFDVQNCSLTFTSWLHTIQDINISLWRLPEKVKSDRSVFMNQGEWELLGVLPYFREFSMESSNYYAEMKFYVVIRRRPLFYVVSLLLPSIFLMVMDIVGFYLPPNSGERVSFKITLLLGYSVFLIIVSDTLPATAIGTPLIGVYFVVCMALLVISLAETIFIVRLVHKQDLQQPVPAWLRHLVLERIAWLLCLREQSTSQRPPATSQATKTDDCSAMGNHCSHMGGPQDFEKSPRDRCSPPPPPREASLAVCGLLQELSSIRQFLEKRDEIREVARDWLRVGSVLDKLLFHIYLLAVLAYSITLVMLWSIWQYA
Outline: as §1

[5] = molecular target: T5, NR2A (Homo sapiens, UniProt Q12879); experiment: Ion channel panel (IonWorks Barracuda): NR2A; type: cell-based; settings: 100% = no change, <100% = inhibition
T5 construct: host or cells: HEK293 or CHO
Outline: as §1

[6] = molecular target: T6, Kv1.3 (Homo sapiens, UniProt P22001); experiment: cell-based; type: cell-based; settings: 100% = no change, <100% = inhibition
T6 construct: host or cells: HEK293 or CHO
Outline: as §1

[7] = molecular target: T7, Kv1.2 (Homo sapiens, UniProt P16389); experiment: cell-based; type: cell-based; settings: 100% = no change, <100% = inhibition
T7 construct: host or cells: HEK293 or CHO
Outline: as §1

[8] = molecular target: T8, Kv1.1 (Homo sapiens, UniProt Q09470); experiment: cell-based; type: cell-based; settings: 100% = no change, <100% = inhibition
T8 construct: host or cells: HEK293 or CHO
Outline: as §1

[9] = molecular target: T9, NR2B (Homo sapiens, UniProt Q13224); experiment: Ion channel panel (IonWorks Barracuda): NR2B; type: cell-based; settings: 100% = no change, <100% = inhibition
T9 construct: host or cells: HEK293 or CHO
Outline: as §1

[10] = molecular target: T10, α3β4 (Homo sapiens, UniProt P30926+P32297); experiment: Ion channel panel (IonWorks Barracuda): α3β4; type: cell-based; settings: 100% = no change, <100% = inhibition
T10 construct: host or cells: HEK293 or CHO
Outline: as §1

[11] = molecular target: T11, α4β2 (Homo sapiens, UniProt P17787+P43681); experiment: Ion channel panel (IonWorks Barracuda): α4β2; type: cell-based; settings: 100% = no change, <100% = inhibition
T11 construct: host or cells: HEK293 or CHO
Outline: as §1

[12] = molecular target: T12, Kir2.1 (Homo sapiens, UniProt P63252); experiment: Ion channel panel (IonWorks Barracuda): Kir2.1; type: cell-based; settings: 100% = no change, <100% = inhibition
T12 construct: host or cells: HEK293 or CHO
Outline: as §1

[13] = molecular target: T13, Nav1.7 (Homo sapiens, UniProt Q15858); experiment: cell-based; type: cell-based; settings: 100% = no change; for Activity of Nav1.7 with peptide, expressed as a percentage of the reference compound: peptide at 0.2 μM; for Activity of Nav1.7 with peptide (percentage of the reference compound): peptide at 20 μM
T13 construct: host or cells: HEK293 or CHO

[14] = molecular target: T14, TRPV1 (Homo sapiens, UniProt Q8NER1); experiment: Ion channel panel (IonWorks Barracuda): TRPV1; type: cell-based; settings: 100% = no change, <100% = inhibition
T14 construct: host or cells: HEK293 or CHO
Outline: as §1

[15] = molecular target: Nav1.5 (Homo sapiens, UniProt Q14524); experiment: in vitro; settings: 100% = no change; for Activity of Nav1.5 with peptide, expressed as a percentage of the reference compound: peptide at 0.2 μM; for Activity of Nav1.5 with peptide (percentage of the reference compound): peptide at 20 μM
Outline: as §1

[16] = molecular target: hERG (Homo sapiens, UniProt Q12809); experiment: in vitro; settings: 100% = no change, <100% = inhibition
Outline: as §1

[17] = molecular target: T15, TRPA1 (Homo sapiens, UniProt O75762); experiment: Ion channel panel (IonWorks Barracuda): TRPA1; type: cell-based; settings: 100% = no change, <100% = inhibition
T15 construct: host or cells: HEK293 or CHO
Outline: as §1

[18] = tested on: GABA; experiment: Ion channel panel (IonWorks Barracuda): GABA; type: cell-based; settings: 100% = no change, <100% = inhibition
Outline: as §1

[19] = first of two Nav1.7 columns (probably TP1)
[20] = second of two Nav1.7 columns (probably TP2)
[21] = first of two Nav1.5 columns (probably TP1)
[22] = second of two Nav1.5 columns (probably TP2)

Nav1.5, sequence (Q14524 whole entry): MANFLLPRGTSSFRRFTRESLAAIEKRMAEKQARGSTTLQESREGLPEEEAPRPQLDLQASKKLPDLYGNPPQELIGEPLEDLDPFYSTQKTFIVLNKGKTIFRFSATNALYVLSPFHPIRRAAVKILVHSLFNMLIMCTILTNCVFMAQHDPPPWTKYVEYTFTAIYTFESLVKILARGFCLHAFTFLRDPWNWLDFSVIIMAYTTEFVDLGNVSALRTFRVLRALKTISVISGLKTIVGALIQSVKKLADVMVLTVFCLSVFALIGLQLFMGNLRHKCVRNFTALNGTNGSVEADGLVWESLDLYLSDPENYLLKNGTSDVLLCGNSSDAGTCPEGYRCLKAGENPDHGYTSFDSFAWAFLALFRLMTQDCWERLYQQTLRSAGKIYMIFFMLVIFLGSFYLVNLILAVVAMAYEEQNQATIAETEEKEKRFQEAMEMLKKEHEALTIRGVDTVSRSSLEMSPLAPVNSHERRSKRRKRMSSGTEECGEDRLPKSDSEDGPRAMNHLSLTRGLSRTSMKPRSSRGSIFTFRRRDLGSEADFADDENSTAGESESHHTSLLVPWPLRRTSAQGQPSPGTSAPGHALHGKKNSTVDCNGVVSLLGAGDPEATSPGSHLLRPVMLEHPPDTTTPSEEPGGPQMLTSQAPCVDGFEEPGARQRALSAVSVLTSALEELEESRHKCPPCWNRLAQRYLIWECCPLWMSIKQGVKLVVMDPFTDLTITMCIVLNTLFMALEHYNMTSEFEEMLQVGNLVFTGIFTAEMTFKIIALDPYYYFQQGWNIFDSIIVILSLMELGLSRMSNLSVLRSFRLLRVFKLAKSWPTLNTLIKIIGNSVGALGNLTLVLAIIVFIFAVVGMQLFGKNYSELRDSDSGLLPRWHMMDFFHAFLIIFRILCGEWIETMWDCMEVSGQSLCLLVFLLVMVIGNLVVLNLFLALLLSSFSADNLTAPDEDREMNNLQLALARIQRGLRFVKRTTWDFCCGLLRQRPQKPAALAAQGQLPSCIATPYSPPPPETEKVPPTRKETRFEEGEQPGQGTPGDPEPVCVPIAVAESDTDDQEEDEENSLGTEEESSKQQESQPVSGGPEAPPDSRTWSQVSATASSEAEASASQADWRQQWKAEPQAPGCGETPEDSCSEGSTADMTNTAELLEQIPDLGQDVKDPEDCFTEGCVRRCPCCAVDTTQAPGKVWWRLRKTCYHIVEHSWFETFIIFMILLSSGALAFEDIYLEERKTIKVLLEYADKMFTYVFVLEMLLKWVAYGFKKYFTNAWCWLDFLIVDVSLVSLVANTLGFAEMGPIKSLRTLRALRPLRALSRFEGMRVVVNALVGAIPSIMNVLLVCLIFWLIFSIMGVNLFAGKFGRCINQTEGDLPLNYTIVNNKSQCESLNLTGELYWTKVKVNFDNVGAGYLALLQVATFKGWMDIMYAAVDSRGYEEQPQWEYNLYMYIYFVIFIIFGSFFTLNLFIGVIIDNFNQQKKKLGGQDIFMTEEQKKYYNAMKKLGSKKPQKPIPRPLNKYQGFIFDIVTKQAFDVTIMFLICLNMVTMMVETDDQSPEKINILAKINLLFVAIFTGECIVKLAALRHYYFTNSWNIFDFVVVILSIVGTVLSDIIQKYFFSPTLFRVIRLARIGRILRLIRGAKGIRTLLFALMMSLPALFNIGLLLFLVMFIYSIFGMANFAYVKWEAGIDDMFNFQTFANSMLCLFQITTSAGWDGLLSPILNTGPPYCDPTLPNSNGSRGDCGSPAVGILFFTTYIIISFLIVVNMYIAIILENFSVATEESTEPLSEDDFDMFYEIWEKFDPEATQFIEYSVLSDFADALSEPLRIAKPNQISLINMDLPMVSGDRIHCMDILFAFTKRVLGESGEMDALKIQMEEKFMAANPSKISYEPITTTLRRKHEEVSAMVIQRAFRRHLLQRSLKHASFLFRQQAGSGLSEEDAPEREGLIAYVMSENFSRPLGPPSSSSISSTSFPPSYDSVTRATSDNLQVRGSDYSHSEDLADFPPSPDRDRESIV
T13 sequence (Q15858 whole entry): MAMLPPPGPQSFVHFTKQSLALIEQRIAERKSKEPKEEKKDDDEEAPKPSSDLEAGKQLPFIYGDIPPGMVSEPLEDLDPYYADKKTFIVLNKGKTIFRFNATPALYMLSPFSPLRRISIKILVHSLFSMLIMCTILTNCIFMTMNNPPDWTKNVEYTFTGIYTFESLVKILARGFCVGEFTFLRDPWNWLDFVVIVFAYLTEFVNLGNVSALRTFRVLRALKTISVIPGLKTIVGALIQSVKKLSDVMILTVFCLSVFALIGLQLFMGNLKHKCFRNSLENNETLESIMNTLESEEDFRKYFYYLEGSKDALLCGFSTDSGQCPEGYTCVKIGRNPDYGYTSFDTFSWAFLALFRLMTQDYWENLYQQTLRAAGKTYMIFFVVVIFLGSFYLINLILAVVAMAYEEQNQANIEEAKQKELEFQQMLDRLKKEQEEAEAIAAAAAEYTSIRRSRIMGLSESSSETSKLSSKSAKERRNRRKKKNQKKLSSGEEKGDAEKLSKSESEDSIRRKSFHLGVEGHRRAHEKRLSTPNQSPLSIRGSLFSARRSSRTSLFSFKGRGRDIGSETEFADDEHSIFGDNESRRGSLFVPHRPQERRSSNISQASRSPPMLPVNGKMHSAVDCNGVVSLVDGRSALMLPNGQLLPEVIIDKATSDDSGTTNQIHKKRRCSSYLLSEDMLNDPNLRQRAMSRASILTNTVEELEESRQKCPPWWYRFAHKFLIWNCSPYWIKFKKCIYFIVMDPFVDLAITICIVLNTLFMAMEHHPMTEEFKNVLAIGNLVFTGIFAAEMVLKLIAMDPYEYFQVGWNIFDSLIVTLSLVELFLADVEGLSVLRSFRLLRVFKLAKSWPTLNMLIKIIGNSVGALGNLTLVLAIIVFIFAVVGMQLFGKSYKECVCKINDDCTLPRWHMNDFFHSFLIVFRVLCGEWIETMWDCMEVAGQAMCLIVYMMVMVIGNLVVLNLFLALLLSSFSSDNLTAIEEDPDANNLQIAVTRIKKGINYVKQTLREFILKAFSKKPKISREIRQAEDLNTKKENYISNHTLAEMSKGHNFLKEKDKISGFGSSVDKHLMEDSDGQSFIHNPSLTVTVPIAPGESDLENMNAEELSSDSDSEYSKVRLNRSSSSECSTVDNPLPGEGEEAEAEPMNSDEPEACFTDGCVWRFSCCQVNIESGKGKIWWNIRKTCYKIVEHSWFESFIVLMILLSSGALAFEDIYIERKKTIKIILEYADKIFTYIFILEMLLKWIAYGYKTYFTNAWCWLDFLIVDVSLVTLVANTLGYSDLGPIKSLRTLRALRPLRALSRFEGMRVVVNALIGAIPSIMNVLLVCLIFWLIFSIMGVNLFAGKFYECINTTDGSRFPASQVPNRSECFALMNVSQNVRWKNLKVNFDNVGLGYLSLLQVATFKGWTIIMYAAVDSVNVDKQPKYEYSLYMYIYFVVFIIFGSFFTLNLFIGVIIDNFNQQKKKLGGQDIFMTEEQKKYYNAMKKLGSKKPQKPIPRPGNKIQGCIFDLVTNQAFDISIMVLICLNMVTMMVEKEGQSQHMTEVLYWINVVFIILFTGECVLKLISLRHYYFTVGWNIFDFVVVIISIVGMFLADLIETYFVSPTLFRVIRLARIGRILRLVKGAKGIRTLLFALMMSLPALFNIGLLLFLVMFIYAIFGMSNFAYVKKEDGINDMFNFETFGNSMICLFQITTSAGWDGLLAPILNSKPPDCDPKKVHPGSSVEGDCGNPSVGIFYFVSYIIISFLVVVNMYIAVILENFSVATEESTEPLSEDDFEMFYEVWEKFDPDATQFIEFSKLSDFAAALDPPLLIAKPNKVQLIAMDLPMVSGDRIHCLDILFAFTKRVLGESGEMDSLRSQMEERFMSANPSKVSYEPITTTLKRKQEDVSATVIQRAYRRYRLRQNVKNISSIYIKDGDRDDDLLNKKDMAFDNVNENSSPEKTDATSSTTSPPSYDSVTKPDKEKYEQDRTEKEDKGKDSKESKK
T15 sequence (O75762 whole entry): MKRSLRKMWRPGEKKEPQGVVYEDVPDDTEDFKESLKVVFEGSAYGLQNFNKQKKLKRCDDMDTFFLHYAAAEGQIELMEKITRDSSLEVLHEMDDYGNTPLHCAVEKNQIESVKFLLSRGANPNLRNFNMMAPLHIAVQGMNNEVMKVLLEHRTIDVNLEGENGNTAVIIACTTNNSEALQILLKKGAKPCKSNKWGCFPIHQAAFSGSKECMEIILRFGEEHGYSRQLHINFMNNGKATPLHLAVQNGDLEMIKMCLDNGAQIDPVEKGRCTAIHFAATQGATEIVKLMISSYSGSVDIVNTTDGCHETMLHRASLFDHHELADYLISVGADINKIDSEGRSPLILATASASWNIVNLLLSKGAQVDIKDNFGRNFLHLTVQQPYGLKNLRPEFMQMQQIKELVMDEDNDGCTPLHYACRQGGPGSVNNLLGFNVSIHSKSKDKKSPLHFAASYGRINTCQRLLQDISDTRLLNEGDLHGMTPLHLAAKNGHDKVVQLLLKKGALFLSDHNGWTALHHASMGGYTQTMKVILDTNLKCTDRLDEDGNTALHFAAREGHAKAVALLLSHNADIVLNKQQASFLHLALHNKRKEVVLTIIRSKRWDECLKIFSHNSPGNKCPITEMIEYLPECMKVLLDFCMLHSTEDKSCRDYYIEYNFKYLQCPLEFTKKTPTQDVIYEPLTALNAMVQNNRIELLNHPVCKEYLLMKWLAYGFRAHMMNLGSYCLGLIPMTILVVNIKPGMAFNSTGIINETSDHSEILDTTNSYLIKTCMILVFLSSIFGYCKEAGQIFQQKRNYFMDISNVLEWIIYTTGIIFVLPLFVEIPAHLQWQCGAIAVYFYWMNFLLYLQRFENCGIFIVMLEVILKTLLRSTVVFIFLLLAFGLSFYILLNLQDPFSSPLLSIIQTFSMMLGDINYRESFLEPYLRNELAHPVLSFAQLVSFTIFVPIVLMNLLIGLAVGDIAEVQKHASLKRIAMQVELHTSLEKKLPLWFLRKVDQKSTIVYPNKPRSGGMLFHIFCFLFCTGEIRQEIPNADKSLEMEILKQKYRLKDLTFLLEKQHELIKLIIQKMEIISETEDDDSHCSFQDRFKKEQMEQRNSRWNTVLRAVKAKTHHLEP

## 13 (GSQKILSNRCNNSSECIPHCIRIFGTRAAKCINRKCYCYP) [compound 13]
[1]; peptide at 0.2 μM
  Activity of Cav2.2 with peptide, expressed as a percentage of the reference compound: 121%
[1]; peptide at 20 μM
  Activity of Cav2.2 with peptide (percentage of the reference compound): 100%
[2]; peptide at 0.2 μM
  Activity of Cav2.1 with peptide, expressed as a percentage of the reference compound: 109%
[2]; peptide at 20 μM
  Activity of Cav2.1 with peptide (percentage of the reference compound): 100%
[3]; peptide at 0.2 μM
  Activity of Kv2.1 with peptide, expressed as a percentage of the reference compound: 104%
[3]; peptide at 20 μM
  Activity of Kv2.1 with peptide (percentage of the reference compound): 116%
[4]
  Activity of 5HT3a with peptide (percentage of the reference compound): 84%
  Activity of 5HT3a with peptide, expressed as a percentage of the reference compound: 96%
[5]; peptide at 0.2 μM
  Activity of NR2A with peptide, expressed as a percentage of the reference compound: 94%
[5]; peptide at 20 μM
  Activity of NR2A with peptide (percentage of the reference compound): 108%
[6]; peptide at 0.2 μM
  Activity of Kv1.3 with peptide, expressed as a percentage of the reference compound: 68%
[6]; peptide at 20 μM
  Activity of Kv1.3 with peptide (percentage of the reference compound): 64%
[7]; peptide at 0.2 μM
  Activity of Kv1.2 with peptide, expressed as a percentage of the reference compound: 88%
[7]; peptide at 20 μM
  Activity of Kv1.2 with peptide (percentage of the reference compound): 40%
[8]; peptide at 0.2 μM
  Activity of Kv1.1 with peptide, expressed as a percentage of the reference compound: 107%
[8]; peptide at 20 μM
  Activity of Kv1.1 with peptide (percentage of the reference compound): 79%
[9]; peptide at 0.2 μM
  Activity of NR2B with peptide, expressed as a percentage of the reference compound: 122%
[9]; peptide at 20 μM
  Activity of NR2B with peptide (percentage of the reference compound): 117%
[10]; peptide at 0.2 μM
  Activity of a3b4 with peptide, expressed as a percentage of the reference compound: 103%
[10]; peptide at 20 μM
  Activity of a3b4 with peptide (percentage of the reference compound): 83%
[11]; peptide at 0.2 μM
  Activity of a4b2 with peptide, expressed as a percentage of the reference compound: 97%
[11]; peptide at 20 μM
  Activity of a4b2 with peptide (percentage of the reference compound): 80%
[12]; peptide at 0.2 μM
  Activity of Kir2.1 with peptide, expressed as a percentage of the reference compound: 97%
[12]; peptide at 20 μM
  Activity of Kir2.1 with peptide (percentage of the reference compound): 98%
[13]; [19]
  Activity of Nav1.7 with peptide, expressed as a percentage of the reference compound: 61%
  Activity of Nav1.7 with peptide (percentage of the reference compound): 71%
[13]; [20]
  Activity of Nav1.7 with peptide, expressed as a percentage of the reference compound: 66%
  Activity of Nav1.7 with peptide (percentage of the reference compound): 62%
[14]; peptide at 0.2 μM
  Activity of TRPV1 with peptide, expressed as a percentage of the reference compound: 97%
[14]; peptide at 20 μM
  Activity of TRPV1 with peptide (percentage of the reference compound): 88%
[15]; [21]
  Activity of Nav1.5 with peptide, expressed as a percentage of the reference compound: 98%
  Activity of Nav1.5 with peptide (percentage of the reference compound): 97%
[15]; [22]
  Activity of Nav1.5 with peptide, expressed as a percentage of the reference compound: 95%
  Activity of Nav1.5 with peptide (percentage of the reference compound): 101%
[16]; peptide at 0.2 μM
  Activity of hERG with peptide, expressed as a percentage of the reference compound: 89%
[16]; peptide at 20 μM
  Activity of hERG with peptide (percentage of the reference compound): 67%
[17]; peptide at 0.2 μM
  Activity of TRPA1 with peptide, expressed as a percentage of the reference compound: 129%
[17]; peptide at 20 μM
  Activity of TRPA1 with peptide (percentage of the reference compound): 113%
[18]; peptide at 0.2 μM
  Activity of GABA with peptide, expressed as a percentage of the reference compound: 107%
[18]; peptide at 20 μM
  Activity of GABA with peptide (percentage of the reference compound): 93%
